# B1: Protein BANP (Homo sapiens), Q8N9N5 (parent)
# chain: MMSEHDLADVVQIAVEDLSPDHPVVLENHVVTDEDEPALKRQRLEINCQDPSIKTICLRLDSIEAKLQALEATCKSLEEKLDLVTNKQHSPIQVPMVAGSPLGATQTCNKVRCVVPQTTVILNNDRQNAIVAKMEDPLSNRAPDSLENVISNAVPGRRQNTIVVKVPGQEDSHHEDGESGSEASDSVSSCGQAGSQSIGSNVTLITLNSEEDYPNGTWLGDENNPEMRVRCAIIPSDMLHISTNCRTAEKMALTLLDYLFHREVQAVSNLSGQGKHGKKQLDPLTIYGIRCHLFYKFGITESDWYRIKQSIDSKCRTAWRRKQRGQSLAVKSFSRRTPNSSSYCPSEPMMSTPPPASELPQPQPQPQALHYALANAQQVQIHQIGEDGQVQVGHLHIAQVPQGEQVQITQDSEGNLQIHHVGQDGQLLEATRIPCLLAPSVFKASSGQVLQGAQLIAVASSDPAAAGVDGSPLQGSDIQVQYVQLAPVSDHTAGAQTAEALQPTLQPEMQLEHGAIQIQ
# partner: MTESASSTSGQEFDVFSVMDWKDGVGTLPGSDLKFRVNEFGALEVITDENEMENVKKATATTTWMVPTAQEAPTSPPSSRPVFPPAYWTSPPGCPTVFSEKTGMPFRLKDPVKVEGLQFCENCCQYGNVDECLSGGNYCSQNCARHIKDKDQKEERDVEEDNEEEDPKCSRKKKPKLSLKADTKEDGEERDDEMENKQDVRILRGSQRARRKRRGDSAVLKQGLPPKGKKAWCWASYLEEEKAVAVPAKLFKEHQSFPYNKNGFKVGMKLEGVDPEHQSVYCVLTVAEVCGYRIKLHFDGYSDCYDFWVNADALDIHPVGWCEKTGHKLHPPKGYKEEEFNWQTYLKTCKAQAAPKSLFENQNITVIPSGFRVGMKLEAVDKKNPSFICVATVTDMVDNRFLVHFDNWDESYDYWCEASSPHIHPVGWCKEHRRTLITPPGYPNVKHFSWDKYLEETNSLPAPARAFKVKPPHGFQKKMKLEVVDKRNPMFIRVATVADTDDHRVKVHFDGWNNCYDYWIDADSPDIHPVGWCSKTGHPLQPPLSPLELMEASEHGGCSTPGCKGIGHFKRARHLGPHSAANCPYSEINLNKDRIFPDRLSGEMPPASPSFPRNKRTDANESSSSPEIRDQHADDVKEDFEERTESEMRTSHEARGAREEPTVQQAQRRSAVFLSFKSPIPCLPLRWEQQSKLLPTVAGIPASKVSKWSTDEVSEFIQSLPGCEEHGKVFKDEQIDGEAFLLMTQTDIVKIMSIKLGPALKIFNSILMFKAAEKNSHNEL
# B2: Protein FAM9B (Homo sapiens), Q8IZU0 (parent)
# chain: MAAWGKKHAGKDPVRDECEERNRFTETREEDVTDEHGEREPFAETDEHTGANTKKPEDTAEDLTAKRKRMKMDKTCSKTKNKSKHALRKKQLKRQKRDYIHSLKLLNVLEEYITDEQKEEEEEEGEEEELIRIFQEQQKKWQQYRSVRRERLKEMKLLRDQFVKALEDFEDLCDRVFSDEDSELDN
# partner: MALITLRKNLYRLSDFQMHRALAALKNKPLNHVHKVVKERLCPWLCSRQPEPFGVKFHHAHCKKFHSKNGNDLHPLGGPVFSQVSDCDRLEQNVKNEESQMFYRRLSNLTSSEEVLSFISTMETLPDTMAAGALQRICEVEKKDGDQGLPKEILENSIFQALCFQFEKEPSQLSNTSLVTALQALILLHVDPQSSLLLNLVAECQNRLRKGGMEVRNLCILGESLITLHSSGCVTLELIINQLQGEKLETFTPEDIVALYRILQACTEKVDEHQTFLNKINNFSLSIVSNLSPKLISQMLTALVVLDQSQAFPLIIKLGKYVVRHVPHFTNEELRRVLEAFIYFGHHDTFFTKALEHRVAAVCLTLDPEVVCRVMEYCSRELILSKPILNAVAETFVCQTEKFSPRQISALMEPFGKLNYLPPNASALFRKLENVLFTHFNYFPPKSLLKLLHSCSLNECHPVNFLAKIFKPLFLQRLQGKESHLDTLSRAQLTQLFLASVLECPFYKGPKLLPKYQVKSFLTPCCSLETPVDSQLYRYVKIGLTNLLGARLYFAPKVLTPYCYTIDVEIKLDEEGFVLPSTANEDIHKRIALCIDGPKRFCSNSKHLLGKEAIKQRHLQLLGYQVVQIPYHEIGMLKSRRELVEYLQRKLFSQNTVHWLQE
# B3: Proteasome inhibitor PI31 subunit (Homo sapiens), Q92530 (parent)
# chain: MAGLEVLFASAAPAITCRQDALVCFLHWEVVTHGYFGLGVGDQPGPNDKKSELLPAGWNNNKDLYVLRYEYKDGSRKLLVKAITVESSMILNVLEYGSQQVADLTLNLDDYIDAEHLGDFHRTYKNSEELRSRIVSGIITPIHEQWEKANVSSPHREFPPATAREVDPLRIPPHHPHTSRQPPWCDPLGPFVVGGEDLDPFGPRRGGMIVDPLRSGFPRALIDPSSGLPNRLPPGAVPPGARFDPFGPIGTSPPGPNPDHLPPPGYDDMYL
# partner: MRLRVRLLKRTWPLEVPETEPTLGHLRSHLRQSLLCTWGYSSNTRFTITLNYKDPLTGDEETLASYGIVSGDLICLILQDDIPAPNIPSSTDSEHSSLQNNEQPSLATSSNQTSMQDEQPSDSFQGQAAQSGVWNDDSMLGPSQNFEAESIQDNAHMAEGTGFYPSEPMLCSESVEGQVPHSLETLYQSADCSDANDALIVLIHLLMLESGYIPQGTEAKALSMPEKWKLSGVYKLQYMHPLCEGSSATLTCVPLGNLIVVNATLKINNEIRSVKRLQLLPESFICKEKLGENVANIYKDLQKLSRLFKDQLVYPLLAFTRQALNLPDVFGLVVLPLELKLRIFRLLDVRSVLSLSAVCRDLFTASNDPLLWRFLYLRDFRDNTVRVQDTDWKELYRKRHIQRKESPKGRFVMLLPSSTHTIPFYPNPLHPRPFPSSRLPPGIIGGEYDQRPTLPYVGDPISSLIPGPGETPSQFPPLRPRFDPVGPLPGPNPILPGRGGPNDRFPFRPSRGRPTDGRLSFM
# B4: Proline-rich protein 3 (Homo sapiens), P79522 (parent)
# chain: MPKRKKQNHHQPPTQQQPPLPEREETGDEEDGSPIGPPSLLGPPPMANGKPGDPKSALHRGPPGSRGPLIPPLLSLPPPPWGRGPIRRGLGPRSSPYGRGWWGVNAEPPFPGPGHGGPTRGSFHKEQRNPRRLKSWSLIKNTCPPKDDPQVMEDKSDRPVCRHFAKKGHCRYEDLCAFYHPGVNGPPL
# partner: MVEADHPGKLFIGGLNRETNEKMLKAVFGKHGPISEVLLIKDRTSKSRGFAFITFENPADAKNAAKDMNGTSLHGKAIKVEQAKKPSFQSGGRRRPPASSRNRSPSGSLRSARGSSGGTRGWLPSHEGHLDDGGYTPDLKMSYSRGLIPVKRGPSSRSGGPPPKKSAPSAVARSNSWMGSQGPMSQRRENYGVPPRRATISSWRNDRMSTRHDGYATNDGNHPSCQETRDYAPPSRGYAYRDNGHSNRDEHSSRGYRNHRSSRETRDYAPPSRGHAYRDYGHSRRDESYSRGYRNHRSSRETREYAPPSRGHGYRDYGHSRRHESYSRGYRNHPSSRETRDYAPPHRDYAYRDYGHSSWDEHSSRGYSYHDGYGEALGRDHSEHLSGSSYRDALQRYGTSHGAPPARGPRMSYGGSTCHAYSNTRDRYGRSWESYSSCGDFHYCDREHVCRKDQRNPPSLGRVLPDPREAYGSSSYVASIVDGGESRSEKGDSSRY
# B5: U3 small nucleolar RNA-associated protein 14 homolog C (Homo sapiens), Q5TAP6 (parent)
# chain: MNVNQVAENLALSHQEELVDLPKNYPLSENEDEGDSDGERKHQKLLEAIISLDGKNRRKLAERSEASLKVSEFSVSSEGSGEKLGLADLLEPVKTSSSLATVKKQLNRVKSKKVVELPLNKEKIEQIHREVAFSKTSQVLSKWDPIILKNQQAEQLVFPLGKEQPAIAPIEHALSGWKARTPLEQEIFNLLHKNKQPVTDPLLTPMEKASLQAMSLEEAKMHRAELQRARALQSYYEAKARKEKKIKSKKYHKVVKKGKAKKALKEFEQLQKVNPTVALEEMEKIENARMMERMSLKHQNSGKWAKSKAIMAKYDLEARQAMQEQLAKNKELTQKLQVASESEEEEGGTEVEELLVPHVANEVQMNVDGPNPWMFRSCTSDTKEAATQEDPEQVPELAAHEVSASEAEERPVAEEEILLREFEERQSLRKRSELNQDAEPASSQETKDSSSQEVLSELRALSQKLKEKHQSRKQKASSEGTVPQVQREEPAPEEAEPLLLQRSERVQTLEELEELGKEDCFQNKELPRPVLEGQQSERTPNNRPDAPKEKKEKEQLINLQNFLTTQSPSVRSLAVPTIIEELEDEEERDQRQMIKEAFAGDDVIRDFLKEKREAVEASKPKDVDLTLPGWGEWGGVGLKPSAKKRRQFLIKAPEGPPRKDKNLPNVIISEKRNIHAAAHQVQVLPYPFTHHRQFERTIQTPIGSTWNTQRAFQKLTTPKVVTKPGHIIKPIKAEDVGYQSSSRSDLPVIQRNPKRITTRHNKEEKL
# Variants of: B1
# Conditions: with lmbl3_human L3MBTL3, Q96JM7
row,Variant,effect of a mutation on the interaction
1,MMSEHDLADVVQIAVEDLSPDHPVVLENHVVTDEDEPALKRQRLEINCQDPSIKTICLRLDSIEAKLQALEATCKSLEEKLDLVTNKQHSPIQVPMVAGSPLGATQTCNKVRCVVPQTTVILNNDRQNAIVAKMEDPLSNRAPDSLENVISNAVPGRRQNTIVVKVPGQEDSHHEDGESGSEASDSVSSCGQAGSQSIGSNVTLITLNSEEDYPNGTWLGDENNPEMRVRCAIIPSDMLHISTNCRTAEKMALTLLDYLFHREVQAVSNLSGQGKHGKKQLDPLTIYGIRCHLFYKFGITESDWYRIKQSIDSKCRTAWRRKQRGQSLAVKSFSRRTPNSSSYCPSESMMSTPPPASELPQPQPQPQALHYALANAQQVQIHQIGEDGQVQVGHLHIAQVPQGEQVQITQDSEGNLQIHHVGQDGQLLEATRIPCLLAPSVFKASSGQVLQGAQLIAVASSDPAAAGVDGSPLQGSDIQVQYVQLAPVSDHTAGAQTAEALQPTLQPEMQLEHGAIQIQ [P348S],with no effect

# Variants of: B2
# Conditions: with fakd3_human FASTKD3, Q14CZ7
row,Variant,effect of a mutation on the interaction
1,R23H,with no effect

# Variants of: B3
# Conditions: with fbx7_human FBXO7, Q9Y3I1
row,Variant,effect of a mutation on the interaction
1,MAGLEVLFASAAPAITCRQDALVCFLHWEVVTHGYFGLGVGDQPGPNDKKSELLPAGWNNNKDLYVLRYEYKDGSRKLLVKAITVESSMILNVLEYGSQQVADLTLNLDDYIDAEHLGDFHRTYKNSEELRSRIVSGIITPIHEQWEKANVSSPHREFPPATAREVDPLRIPPHHPHTSRQPPWCDPLGPFAVGGEDLDPFGPRRGGMIVDPLRSGFPRALIDPSSGLPNRLPPGAVPPGARFDPFGPIGTSPPGPNPDHLPPPGYDDMYL [V192A],with no effect

# Variants of: B4
# Conditions: with rby1f_human RBMY1F
row,Variant,effect of a mutation on the interaction
1,MPKRKKQNHHQPPTQQQPPLPEREETGDEEDGSPIGPPSLLGPPPMANGKPGDPKSALHRGPPGSRGPLIPPLLSLPPPPWGRGPIWRGLGPRSSPYGRGWWGVNAEPPFPGPGHGGPTRGSFHKEQRNPRRLKSWSLIKNTCPPKDDPQVMEDKSDRPVCRHFAKKGHCRYEDLCAFYHPGVNGPPL,with no effect

# Variants of: B5
# Conditions: with myome_human PDE4DIP
row,Variant,effect of a mutation on the interaction
1,I170V,with no effect
2,A652T,with no effect

# Reference: IntAct's records for PubMed 31515488
